Test results as given in article PMC3491057, “Proliferating Cell Nuclear Antigen (PCNA) Interactions in Solution Studied by NMR” (PLoS ONE, 2012).
No end group written: not given here.

How the values were obtained:
Details in all cases: both partners purified
[1] = molecular target: T1, Proliferating Cell Nuclear Antigen (PCNA), human (human, homotrimeric ring; GlySerHis tag remnant before Met1 left out; 2H/15N(/13C) labelled for NMR, natural abundance for ITC); assay: ITC; PCNA (11.2–13.4 µM protomers) in the cell titrated with peptide (117 µM p21^20, 363 p21^12); PBS pH 7.0, 35°C; single set of identical sites
[2] = molecular target: T1, Proliferating Cell Nuclear Antigen …; assay: ITC; PCNA (11.2–13.4 µM protomers) in the cell titrated with peptide (117 µM p21^20, 363 p21^12); PBS pH 7.0, 30°C; single set of identical sites
[3] = molecular target: Proliferating Cell Nuclear Antigen (PCNA), human (human); assay: NMR titration; 280 µM U-2H,15N-PCNA titrated with a 7.5 mM stock of ING1^22 up to a 7.8-fold molar excess; CSP of H44 fitted to one set of sites; PBS pH 7.0, 35°C
Proliferating Cell Nuclear Antigen (PCNA), human (human), sequence (chain, as listed by the source): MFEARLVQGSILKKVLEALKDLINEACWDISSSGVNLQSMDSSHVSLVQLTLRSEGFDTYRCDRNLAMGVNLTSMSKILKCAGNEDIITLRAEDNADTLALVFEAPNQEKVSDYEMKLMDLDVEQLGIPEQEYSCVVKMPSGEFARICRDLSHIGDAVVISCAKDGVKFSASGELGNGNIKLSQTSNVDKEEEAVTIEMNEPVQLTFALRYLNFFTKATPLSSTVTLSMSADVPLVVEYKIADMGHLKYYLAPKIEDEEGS

T1 sequence (chain, as listed by the source): as above

Kd [1] [mM] | Kd [2] [mM] | stoichiometry N [2] | KD with CSPmax set equal to the CSP of PCNA bound to p21^20 [3] [mM] | Kd [3] [mM] | Binder
0.0011 | 0.00064 | 1 p21 ligand per PCNA protomer |  |  | KRRQTSMTDFYH (source: lyophilized peptide) [p21 fragment 141-152 (p21^12), shorter PIP-box peptide of the Cyclin-dependent kinase inhibitor 1]
 |  |  | 12.5 ± 0.5 | 2 ± 0.7 | PANGEQLHLVNYVEDTLDSIES (not fully specified) [ING1 PIP-box fragment 4-25 (ING1^22)]
